Patent publication US20060127409A1 (published 2006)

B1: b2a2 A3 (analogue) (peptide)
peptide: YLINKEEAL
notes: Synthetic analogue of b2a2A; also called YLINKEEAL
B2: b2a2 A5 (analogue) (peptide)
peptide: YLINKVEAL
notes: Synthetic analogue of b2a2A; also called YLINKVEAL

Assays:
[1] = target: T1, HLA-A0201 molecule on T2 cells (TAP-, HLA-A0201+) (human); experiment: refers to the T2 assay
T1 construct: Empty, thermolabile HLA-A0201 on TAP-deficient T2 cells, stabilised by added peptide; surface level read with mAb BB7.2; also called HLA-A2.1; HLA-A2
Procedure: (§1) T2 cells (TAP-, HLA-A0201⁺) were incubated overnight at 37° C. at a concentration of 1×10⁶ cells/ml in FCS-free RPMI medium supplemented with 5 μg/ml human β₂m (Sigma, St Louis, Mo.) in the absence (negative control) or presence of either a positive reference tyrosinase peptide or test peptides at various final concentrations (50, 10, 1, and 0.1 micrograms (μg)/ml). Following a 4-hour incubation with 5 μg/ml brefeldin A (Sigma), T2 cells were labeled for 30 minutes at 4° C. with a saturating concentration of anti-HLA-A2.1 (BB7.2) mAb, then washed twice. Cells were then incubated for 30 minutes, 4° C. with a saturating concentration of FITC-conjugated goat IgG F(ab′)2 anti-mouse Ig (Caltag, San Francisco, Calif.), washed twice, fixed in PBS/1% paraformaldehyde and analyzed using a FACS Calibur® cytofluorometer (Becton Dickinson, Immunocytometry Systems, San Jose, Calif.)
(§2) The mean intensity of fluorescence (MIF) observed for each peptide concentration (after dividing by the MIF in the absence of peptide) was used as an indication of peptide binding and expressed as a “fluorescence index.” Stabilization assays were performed similarly. Following initial evaluation of peptide binding at time 0, cells were washed in RPMI complete medium to remove free peptides and incubated in the continuous presence of 0.5 μg/ml brefeldin-A for 2, 4, 6 or 8 hours.

[2] = target: T1, HLA-A0201 molecule on T2 cells (TAP-, …); experiment: T2 binding and stabilization assay, flow cytometry with BB7.2
Procedure: as §1, §2

| Binder | binding result [1] | binding result [2] |
| --- | --- | --- |
| SSKALQRPV (Synthetic 9-mer) [CMLA2 native (p210-b3a2)] | binds | – |
| KALQRPVAS [p210Cn native (p210-b3a2)] | – | binds |
| B1 | – | binds |
| B2 | – | binds |
| YLINKEEAV (Synthetic analogue of b2a2A) [b2a2 A4 (analogue)] | – | binds |
